Test results reported in US20070231333A1, “ANTI-5T4 ANTIBODIES AND USES THEREOF” (Wyeth, priority 2006, published 2007).

What was measured:
[1] = test system: MDAMB435/5T4 cells; assay: Modulation/internalization of antibodies by MDAMB435/5T4 cells (FACS); type: cell-based, human; details: 37° C., 4 or 24 hours, 4C
Method: FIGS. 4A-4C are line graphs that show modulation of H8, A1, A2, and A3 antibodies by MDAMB435/5T4 cells. […] MCF, mean cellular fluorescence; supt, supernatant.
To assess internalization of antibodies upon binding to 5T4 antigen, the amount of H8 and A1 antibodies detected at the cell surface versus in the supernatant was determined as a function of time. Non-enzymatically dissociated MDAMB435/5T4 cells (human breast cancer cells) were exposed to anti-5T4 antibodies for 1 hour at 4° C. Cells were washed and incubated in media at 37° C. for 4 hours or 24 hours. The amount of antibody bound to cellular membranes versus unbound antibody (i.e., presence in the supernatant) was determined using FACS.

[2] = test system: black-tailed marmoset 5T4 ectodomain Fc; assay: Epitope mapping ELISA, 5T4 ectodomain Fc fusions; type: binding; design: key: +: binding; −: no binding; +/−: partial binding
Chain of black-tailed marmoset 5T4 ectodomain Fc (as listed by the source): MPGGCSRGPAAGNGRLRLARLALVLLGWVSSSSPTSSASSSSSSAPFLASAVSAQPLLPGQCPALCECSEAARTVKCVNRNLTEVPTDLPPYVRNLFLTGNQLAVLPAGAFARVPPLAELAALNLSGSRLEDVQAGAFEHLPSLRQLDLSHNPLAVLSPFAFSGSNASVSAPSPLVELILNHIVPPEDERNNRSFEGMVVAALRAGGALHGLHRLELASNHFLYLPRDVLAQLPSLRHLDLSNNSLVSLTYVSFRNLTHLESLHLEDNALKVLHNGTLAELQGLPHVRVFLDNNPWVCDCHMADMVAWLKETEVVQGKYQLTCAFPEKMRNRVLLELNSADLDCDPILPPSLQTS
Method: (§1) To identify the epitopes to which each of the A1, A2, A3, and H8 antibodies bind, ELISA assays were performed using (1) 5T4 ectodomain Fc constructs with deleted or mutated sequences, and (2) 5T4 chimera constructs transiently expressed in COS-1 cells. The ectodomain includes the amino-terminal region, two leucine-rich repeats, and the intervening hydrophilic region. Fusion proteins containing a 5T4 ectodomain and a Fc constant regions from human IgG1 were prepared using mouse 5T4 (amino acids 1-361), rat 5T4 (amino acids 1-361), cynomologous monkey 5T4 (amino acids 1-355), chimpanzee 5T4 (amino acids 1-355), and black-tailed marmoset (amino acids 1-355). The 5T4 chimera constructs are depicted in FIG. 5. The binding results are summarized in Table 5, which indicates specific binding, partial binding, or lack of binding, by each of the H8, A1, A2, and A3 antibodies.

[3] = test system: chimpanzee 5T4 ectodomain Fc; assay: Epitope mapping ELISA, 5T4 ectodomain Fc fusions; type: binding; design: key: +: binding; −: no binding; +/−: partial binding
Method: as §1

[4] = target: T1, cynomologous monkey 5T4 ectodomain Fc (Macaca fascicularis, UniProt Q4R8Y9, G135A/G313E/S41F); assay: Epitope mapping ELISA, 5T4 ectodomain Fc fusions; type: binding; design: key: +: binding; −: no binding; +/−: partial binding
T1 construct: cynomologous monkey 5T4 (amino acids 1-355); made in house; host or cells: COS-1 cells (transient)
T1 sequence (Q4R8Y9 35-355 S41F/G135A/G313E): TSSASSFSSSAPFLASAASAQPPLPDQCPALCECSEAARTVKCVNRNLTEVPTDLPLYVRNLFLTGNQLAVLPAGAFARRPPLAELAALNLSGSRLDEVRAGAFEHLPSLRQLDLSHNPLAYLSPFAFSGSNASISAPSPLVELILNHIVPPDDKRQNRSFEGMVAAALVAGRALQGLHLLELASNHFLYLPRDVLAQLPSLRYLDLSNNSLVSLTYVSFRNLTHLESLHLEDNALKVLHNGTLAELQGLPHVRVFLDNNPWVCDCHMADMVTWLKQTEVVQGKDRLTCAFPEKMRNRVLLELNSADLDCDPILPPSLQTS
Method: as §1

[5] = target: T2, human 5T4 ectodomain Fc (Homo sapiens, UniProt Q13641); assay: Epitope mapping ELISA, 5T4 ectodomain Fc fusions; type: binding; design: key: +: binding; −: no binding; +/−: partial binding
T2 construct: Human; 100; 1-355; made in house; host or cells: COS-1 cells (transient)
T2 sequence (Q13641 32-355): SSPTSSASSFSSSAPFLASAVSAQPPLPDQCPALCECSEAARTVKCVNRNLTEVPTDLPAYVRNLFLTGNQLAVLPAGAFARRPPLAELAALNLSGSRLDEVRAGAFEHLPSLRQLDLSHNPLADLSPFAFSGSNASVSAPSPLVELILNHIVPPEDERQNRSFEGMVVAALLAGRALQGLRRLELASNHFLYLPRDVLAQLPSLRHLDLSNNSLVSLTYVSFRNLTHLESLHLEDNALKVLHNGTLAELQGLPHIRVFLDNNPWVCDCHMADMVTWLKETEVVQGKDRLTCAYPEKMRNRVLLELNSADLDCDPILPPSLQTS
Method: as §1

[6] = target: T3, mouse 5T4 ectodomain Fc (Mus musculus, UniProt Q9Z0L0); assay: Epitope mapping ELISA, 5T4 ectodomain Fc fusions; type: binding; design: key: +: binding; −: no binding; +/−: partial binding
T3 construct: mouse 5T4 (amino acids 1-361); made in house; host or cells: COS-1 cells (transient)
T3 sequence (Q9Z0L0 32-361): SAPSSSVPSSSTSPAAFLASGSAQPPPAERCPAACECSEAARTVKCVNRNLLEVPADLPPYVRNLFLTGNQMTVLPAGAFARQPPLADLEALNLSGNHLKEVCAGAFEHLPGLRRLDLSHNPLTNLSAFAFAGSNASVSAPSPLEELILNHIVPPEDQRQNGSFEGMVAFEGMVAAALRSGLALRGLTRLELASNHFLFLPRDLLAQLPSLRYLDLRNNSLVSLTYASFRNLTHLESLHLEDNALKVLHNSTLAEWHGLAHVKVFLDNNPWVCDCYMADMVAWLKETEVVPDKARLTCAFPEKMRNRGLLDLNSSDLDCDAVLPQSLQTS
Method: as §1

[7] = target: T4, human 5T4 ectodomain Fc fusion protein (Homo sapiens, UniProt Q13641); assay: Competitive binding assay with biotinylated humanized H8 antibody; details: FIGS. 6A-6B
T4 construct: Human; 100; 1-355; made in house; host or cells: COS-1 cells (transient)
T4 sequence (Q13641 32-355): T2 sequence (Q13641 32-355)
From the text: FIGS. 6A-6B show graphical results of competitive binding of humanized H8 and each of the indicated antibodies to human 5T4 ectodomain Fc fusion protein. HuH8, humanized H8 antibody; ChiA1, chimeric A1 antibody; ChiA1+C67F, chimeric A1 antibody bearing C67F mutation; ChiA2, chimeric A2 antibody; muA2, murine A2 antibody; ChiA3, chimeric A3 antibody; ChiA3+C91Y, chimeric A3 antibody bearing C91Y mutation, muA3, murine A3 antibody; No Ab, no antibody (control).
In addition to direct binding assays, competitive binding assays were performed using biotinylated humanized H8 antibody and each of the A1, A2, or A3 antibodies. Inhibition of binding to human 5T4 was not observed, supporting that each of A1, A2, and A3 binds to a 5T4 epitope that is distinct from that bound by the H8 antibody.

B1: A2: murine anti-5T4 monoclonal antibody (IgG2b heavy chain); VH residues 19-135 of SEQ ID NO:6, VL residues 23-130 of SEQ ID NO:8 (antibody, listed as Mus musculus, V domains shown)
VH: MEWRIFLFILSGTAGVHSQVQLQQSRPELVKPGASVKMSCKASGYTFTDYVISWVKQRTGQGLEWIGEIYPGSNSIYYNEKFKGRATLTADKSSSTAYMQLSSLTSEDSAVYFCAMGGNYGFDYWGQGTTLTVSS
VL: MDFQVQIFSFLLISASVIMSRGQIVLTQSPAIMSASLGERVTLTCTASSSVNSNYLHWYQQKPGSSPKLWIYSTSNLASGVPARFSGSGSGTSYSLTISSMEAEDAATYYCHQYHRSPLTFGAGTKLELK
modifications: (1)..(18) leader sequence; (19)..(135) heavy chain variable region; (44)..(53) CDR1; (68)..(84) CDR2; (117)..(124) CDR3; (1)..(22) leader sequence; (23)..(130) light chain variable region; (46)..(56) CDR1; (73)..(79) CDR2; (112)..(120) CDR3
levels of antibody at the cell surface ([1]; FIGS. 4A): decline over time | levels of antibody in the supernatant ([1]; FIGS. 4B): remain constant | binding to 5T4 antigen construct [2]: + | binding to 5T4 antigen construct [3]: + | binding to 5T4 antigen construct [4]: + | binding to 5T4 antigen construct [5]: + | binding to 5T4 antigen construct [6]: − | inhibition of binding of biotinylated humanized H8 to human 5T4 [7]: not observed
